A short description of this data set: yeast display, Sf9 membrane polyspecificity reagent, FACS + sequencing; frameworks hold sequencing errors. An outline of the steps:
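Nanobodies came from a synthetic yeast display library in Saccharomyces cerevisiae BJ5465, induced with galactose for 36–48 hours and stained for 1 hour at 4 °C with 10% biotinylated, detergent-solubilized Sf9 membrane reagent. Cells were enriched on streptavidin microbeads and then FACS-sorted, with low and high (top ~1%) gates set on anti-HA fluorescence for expression and streptavidin fluorescence for reagent binding. Each polyreactivity label reflects the gate a clone came from. Genes were amplified by colony PCR, sequenced by MiSeq 2 × 250 and filtered by CDR length.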
“QVQLVESGGGLVQAGGSLRLSCAASGSTFTDYDMGWYRQAPGKERELVAAITSGGSTNYADSVKGRFTISRDNAKNTVYLQMNSLKPEDTAVYYCAAADADRKYDYWGQGTQVTVSS”: the “polyreactivity (PSR sort gate)” value is given as “low polyreactivity”.
As for “QVQLVESGGGLVQAGGSLRLSCAASGSTFTFNAMGWSRQAPGKDRELVAAIRWSTGGTYYADSVKGRFTISRDNAKNTVYLQMNSLKPEDTAVYNCAAQFVPYFYFSKYDYWGQGTQVTVSS”, the entry is “low polyreactivity”; as for “QVQLVESGGGLVQAGGSLRLSCAASGSTFTGNAMAWYRQAPGKERELVAAISRSGGSTFYADYVKGRFTISRDNAKNTVYLQMNSLKPEDTAVYYCATRYVVDMDYWGQGTQVTVSS”, “high polyreactivity”.
As for “QVQLVESGGGLVQAGGSLRLSCAASGSTFTGYAMGWSRQAPGKEREIVATITKRGGRTYYADSVKGRFTISRDNAKNTVYLQMNSLKPEDTAVYYCARDQGKLVVPYAYWGQGTQVTVSS”, the entry is “high polyreactivity”; as for “QVQLVESGGGLVQAGGSLRLSCAASGSTFTGYAMGWYRQAPGKERELVAAISRSGGSTSYADSVKGRFTISRDNAKNTVYLQMNSLKPEDTAVYYCAAQVQGTTRAKQRGGIGELDYWGQGTQLTVSS”, “low polyreactivity”; as for “QVQLVESGGGLVQAGGSLRLSCAASGSTFTGYAMGWYRQAPGKERELVAAISRSVGRTYYADSVKGRFTISRDNAKNTVYLQMNSLKPEDTAVYYCAADVYLTGSRNYYWGQGTQVTVSS”, “high polyreactivity”.
Then “QVQLVESGGGLVQAGGSLRLSCAASGSTFTGYAMGWYRQAPGKERELVAAITRGGSTYYADSVKGRFTISRDNAKNTVYLQMNSLKPEDTAVYYCAAKPSSREPTGPRYYYWGQGTQVTVSS”, with “high polyreactivity”; and “QVQLVESGGGLVQAGGSLRLSCAASGSTFTGYTMGWYRQAPGKERELVAAITYRGGSTYYADSVKGRFTISRDNAKITDYLQMNSLIPEDTAVYYCAAVPEYYEYSPYDYWGQGTQVTVSS”, with “low polyreactivity”; and “QVQLVESGGGLVQAGGSLRLSCAASGSTFTGYTMGWYRQAPGKERELVAAITYRGGSTYYADSVKGRFTISRDNAKNTVYLQMNSLKPEDSAVYYCAAVAVYYEYSPYDYWGQGTQLTVSS”, with “low polyreactivity”.
For the sequence “QVQLVESGGGLVQAGGSLRLSCAASGSTFTHYAMGWYRQAPGKERELVAAISWGGGTTRYADSVKGRFTISRDNAKNTVYLQMNSLKPEDTAVYYCAAYRTHGPPRAIRFDYWGQGTQVTVSS”, the “polyreactivity (PSR sort gate)” value is “high polyreactivity”.
Then “QVQLVESGGGLVQAGGSLRLSCAASGSTFTIYAMGGYRQAPGKERELVAAITRGGSTNYADSVKGRFTISRDNAKNTVYLQMNSLKPEDTAVYYCNKVVPGYSAAKYDYWGQGTQVTVSS”, with “high polyreactivity”; and “QVQLVESGGGLVQAGGSLRLSCAASGSTFTIYAMGWYRQAPGKERELVAAITFSGDRTYYADSVKGRFTISRDNAKNTVFLQMNSLKPEDTAVYYCAAKSSTKQRKYYWGQGTQVTVSS”, with “high polyreactivity”; and “QVQLVESGGGLVQAGGSLRLSCAASGSTFTKNAMGWYRQAPGKERELVAAISFSGGSTYYADSVKGRFTISRDNAKNTVYLQMNSLKPEHTAVYYCAADPHRALPRFDYWGQGTQVTVSS”, with “low polyreactivity”.
For “QVQLVESGGGLVQAGGSLRLSCAASGSTFTKNAMGWYRQAPGKERELVVVINRSGTSTYYADSVKGRFTISRDNAKNTVYLQMNSLKPEDTAVYYCATKYARTAGGGYYWGQGTQVTVSS”, the “polyreactivity (PSR sort gate)” value is listed as “high polyreactivity”.
Then “QVQLVESGGGLVQAGGSLRLSCAASGSTFTKYAMGWYRQAPGKERELVAAISRSGGGTYYADSVKGRFTISRDNAKNTVYLQMNILKPEDTAVYYCNAALFRGAQFDYWGQGTQVTVSS”, with “high polyreactivity”.
As for “QVQLVESGGGLVQAGGSLRLSCAASGSTFTLNAMGWYRQAPGKERELVAAITTSGGSTYYADSVKGRFTISRDNAKNTVYLQMNSLKPEDTAVYYCNADGPWREVERPFRKEGNYWGQGTQVTVSS”, the entry is “low polyreactivity”; as for “QVQLVESGGGLVQAGGSLRLSCAASGSTFTNNGMGWYRQAPGKERELVATISWDGDSTYYADSVKGRFTISRDNAKNTVYLQMNSLKPEDTAVYYCAADEWGSDSALNFEYWGQGTQVTVSS”, “low polyreactivity”.
Then “QVQLVESGGGLVQAGGSLRLSCAASGSTFTNYAMGWYRQAPGKERELLAAINNDRTNYADSVKGRFTISRDNAMNTVYLQMNSLKPEDTAVYYCAARLGGRRRFGYWGQGTQVTVSS”, with “high polyreactivity”; and “QVQLVESGGGLVQAGGSLRLSCAASGSTFTPNAMGWYRQAPGKERELVAAIRGLNGRTYYADSVKGRFTISRDNAKNTVYLQMHSLKPEDTAVYYCAAGGYSYYFAWHDYWGQGTQVTVSS”, with “low polyreactivity”.
Regarding “QVQLVESGGGLVQAGGSLRLSCAASGSTFTPYAMGWYRQAPAKERELVAAITSGGPTNYADSVKGRFTISRDNAKNTVYLQMNSLKPEDTAVYYCNAEYLYWWEIYDYWGQGNQVTVSS”, the “polyreactivity (PSR sort gate)” value is “high polyreactivity”.
As for “QVQLVESGGGLVQAGGSLRLSCAASGSTFTPYAMGWYRQAPGKEREFVARISWTGGSTYYADSVKGRFTISRDIAKNTVYLQMNSLKPEDTAVYYCNADRYRWYDHGYYYWGQGTQVTVSS”, the entry is “high polyreactivity”.
Then “QVQLVESGGGLVQAGGSLRLSCAASGSTFTPYVMGWYRQAPGKERELVAAIRRRGGSTYYADSVKGRFTISRDNAKNSVYLQMNSLKPEDTAVYYCATDWSWLSLKFDYWGQGTQVTVSS”, with “high polyreactivity”; and “QVQLVESGGGLVQAGGSLRLSCAASGSTFTQYVMGWYRQAPGKERDLVAAISDSGSTYYADSVKGRFTISRDNAKNTVYLQMNRLKPEDTAVYFCNADDVDFYYGYGYLDYDYWGQGTQVTVSS”, with “low polyreactivity”; and “QVQLVESGGGLVQAGGSLRLSCAASGSTFTRNAMGWYREAPGTERELVAAISFSGGSTYYADSVKGRFTISRDNAKNTVYLQMNSLKPEDTAVYYCATKVEYRYYYWGQGTQVTVSS”, with “high polyreactivity”.
Then “QVQLVESGGGLVQAGGSLRLSCAASGSTFTRNAMGWYRQAPGKERELVAAITSSGGSTYYADSVKGRFTISRDNAKITVYLQMNSLKPEDTAVYYCAAYPHRPRDRELDHWGQGTQVTVSS”, with “low polyreactivity”; and “QVQLVESGGGLVQAGGSLRLSCAASGSTFTRNAMGWYRQAPGKERELVAAITSSGGSTYYADSVKGRFTISRDNAKNTVYLQMNSLKPEDTAVYYCNADFRTYYDSEYDYWGQGTQVTVSS”, with “low polyreactivity”; and “QVQLVESGGGLVQAGGSLRLSCAASGSTFTRYAMGWNRQAPGKARELVAAINWSGTSTYYADSVKGRFTISRDNAMNTVYLQMNSLKPEATAVYYSNAYTVRSYRFDYWGQGTQVTVSS”, with “high polyreactivity”.
In the case of “QVQLVESGGGLVQAGGSLRLSCAASGSTFTRYAMGWYRQAPGKERELVAAISGGGSTNYADSVKGRFTISRDNANNTVYLQKNSLKPEVTAVYFCAARVRTTGYSQMYYWGQGTQVTVSS”, the “polyreactivity (PSR sort gate)” value was “low polyreactivity”.
As for “QVQLVESGGGLVQAGGSLRLSCAASGSTFTRYAMGWYRQAPGKERELVAAISGGGSTNYADSVKGRFTISRDNSKNTVYLQMNSLKPEDTAVYYCAARVRTTGYSQMYYWGQGTQVTVSS”, the entry is “low polyreactivity”; as for “QVQLVESGGGLVQAGGSLRLSCAASGSTFTRYGMGRYRQAPGKERELVAAITTSGSSTYYADSVKGRFTISRDNAKNTVYLQMNSLKPEDTAVYYCAADWSSWGFDYWGQGTQVTVSS”, “low polyreactivity”.
For the sequence “QVQLVESGGGLVQAGGSLRLSCAASGSTFTSNTMGWCRQAPGKERELVAGITGAGSTNYADSVKGRFTISRDNEKNTVYLQMNSLKPEDTAVYYCAASVRWPRVSQRARYGYYYWGQGTQVAVSS”, the “polyreactivity (PSR sort gate)” value was “high polyreactivity”.
As for “QVQLVESGGGLVQAGGSLRLSCAASGSTFTSYAMGWYRQAPGKERELVAGITSRGTSTYYADSVKGRFTISRDHAKNTVYLQMNSLKPEYTAVYYCAAVYLSYGPGSEDPLGYWGQGTQVTVSS”, the entry is “high polyreactivity”.
With “QVQLVESGGGLVQAGGSLRLSCAASGSTFTSYAMGWYRQAPGKERELVASIRSTSGRTYYADSVKGRFTISRDNAKNTVYLQMNSLKPEDTAVYYCAAATYGTWWTYADNPYDYWGQGTQVTVSS”, the “polyreactivity (PSR sort gate)” value is “high polyreactivity”.
On to “QVQLVESGGGLVQAGGSLRLSCAASGSTFTTNAMGLYRQEPGKERELVAAITSTGSTYADSVKGRFTISRDNAMNTVYLQMNSLKPEDTAVYYCAADTQWTTPYDYWGQGTQVTVSS”, for which the “polyreactivity (PSR sort gate)” value is “low polyreactivity”.
As to “QVQLVESGGGLVQAGGSLRLSCAASGSTFTTYAMRWYRQAPGKERELLAAITRGGGRTYYSDSVKGRFTISRDYAKNTVYLLMNSLKPEDTAVYYCNAGRSNSPCGRPYDYWGQGTQVTVSS”, the “polyreactivity (PSR sort gate)” value is given as “high polyreactivity”.
As for “QVQLVESGGGLVQAGGSLRLSCAASGSTFTVNAMGWYRQAPGKERELVAAIRWSGDSTYYADSVKGRFTISRDNAKNTVYLQMNSLKPEDTAVYYCARDLYWGSYNYWGQGTQVTVSS”, the entry is “low polyreactivity”.
Then “QVQLVESGGGLVQAGGSLRLSCAASGSTFTYNAMGWYRPAPGKERELVAAISYGGGRTYYADSVKGRFTISRDNAKNTVYLQMNSLKPEDTAVYYCAAGRSIGALYYGMDYWGQGTQVTVSS”, with “high polyreactivity”; and “QVQLVESGGGLVQAGGSLRLSCAASGSTFTYNAMGWYRQAPGKERELVAAIDRSVSTNYADSVKGRFTISRDNAKNTVYLQMNSLKPEDTAVYYCNARHPTDDIVIYDYWGQGTQVTVSS”, with “low polyreactivity”.
As for “QVQLVESGGGLVQAGGSLRLSCAASGSTFTYNAMGWYRQAPGKERELVAAISWSGGRTYYADSVKGRFTISRDNATNTVYLQMNSLKPEDTAVYSCAAKYRYSTYSFPYDYWGQGTQVTVSS”, the “polyreactivity (PSR sort gate)” value is “high polyreactivity”.
As for “QVQLVESGGGLVQAGGSLRLSCAASGSTFTYYAMGWYRQAPGKERELVADISWDGGSTYYADSVKGRFTFSRDNAKNTVYLQMNSLKPEDTAVYYCATDLVYKYDYWGQGTQVTVSS”, the entry is “low polyreactivity”.
Then “QVQLVESGGGLVQAGGSLRLSCAASGSTFTYYAMGWYRQAPGKERELVASITTSGGDTNYADSVKGRFTISRDNAKNTVYLQMNSLKPEDTAVYYCAADLYDPYHVYGYNYWGQGTQVTVSS”, with “low polyreactivity”.

Source of the values: the nanobody polyreactivity screen of Harvey et al. (2022).
